Measurements reported in patent US20240156869A1 (published 2024).

Molecular target: T1, HERV-E (CT-RCC8/9 by the listing's note) peptide on HLA-A*11 (human)
T1 peptide: ATFLGSLTWK
Assay: cytokine release
Protocol: To test whether A*11 expression conferred target recognition to these transduced cells, a co-culture experiment was performed. […] After 18 hours, the supernatant was collected and an ELSIA was performed on the supernatant for interferon-gamma (IFNγ).
To test whether A*02 expression conferred target recognition to these transduced cells, a co-culture experiment was performed. […] After 18 hours, the supernatant was collected, and an ELISA was performed on the supernatant for Interferon-gamma (IFNγ).

B1: HERV-E-TCR (TCR, V domains shown)
Valpha: GIQVEQSPPDLILQEGANSTLRCNFSDSVNNLQWFHQNPWGQLINLFYIPSGTKQNGRLSATTVATERYSLLYISSSQTTDSGVYFCAVRGGADGLTFGKGTHLIIQP
Vbeta: DTEVTQTPKHLVMGMTNKKSLKCEQHMGHRAMYWYKQKAKKPPELMFVYSYEKLSINESVPSRFSPECPNSSLLNLHLHALQPEDSALYLCASSPPNEKLFFGSGTQLSVL
- binding result: recognises
